The results in this text go back to PMC4121237, “Engineering Neprilysin Activity and Specificity to Create a Novel Therapeutic for Alzheimer’s Disease” (PLoS ONE, 2014).

One data set has as its system Endothelin-1. Put plainly: Steady-state kinetics of endothelin-1 cleavage, stopped assay with RP-HPLC. The format is biochemical. Here is the method: Kinetic parameters for cleavage of endothelin-1 by NEP were determined using a stopped assay in which the amount of substrate cleaved was measured using reversed-phase HPLC (RP-HPLC). Endothelin-1 was incubated at 12.5–200 µM in the presence of wild type NEP or NEPv and reactions were stopped after 10 min at 37°C by the addition of an equal volume of 1∶1∶1 water:acetonitrile:TFA containing 2 mM tris(2-carboxyethyl)phosphine (Thermo Scientific). RP-HPLC spectra were recorded using an Agilent 1260 Infinity system. Injections of 20 µL were made for each sample and analytes were separated by elution on an Agilent Polaris C8-A stationary phase column (4.6×100 mm, 3 µm) at 1.5 mL min^−1 using a linear binary gradient of 10–90% acetonitrile in water with 0.1% (v/v) TFA over 15 minutes at 40°C. Signal intensity for intact endothelin-1 was monitored at 210 nm and relative peak area was determined by manual integration of the baseline. Kinetic parameters were derived from the activity data as described above.

A further data set concerns Aβ1–40. The data set is described as follows: Endpoint degradation assay with ELISA read-out. The class given is biochemical, human. Particulars: 1 hour at room temperature; Aβ40 ELISA. As for the experimental part:
(§1) Supplementary file pone.0104001.s001.tif: Figure S1 Degradation of Aβ1–40 and Aβ1–42 by NEP wild-type and NEPv. Measurement of the degredation of Aβ1–40 (A) and Aβ1–42 (B) was performed by incubating peptide and either wild-type NEP (▪) or NEPv (Δ) for 1 hour at room temperature. The reaction was stopped by the addition of 1.10-phenanthroline to a final concentration of 10 µM. 50 µl (Aβ40 analysis) or 100 µl (Aβ42 analysis) of the reaction mix was transferred to an ELISA plate. Aβ40 and Aβ42 concentrations after degradation were determined using Invitrogen human Aβ40 ELISA kit (Invitrogen, California, US), and Innotest β-amyloid RUO (1–42) ELISA (Innogenetics, Gent, Belgium). […] (TIF) Click here for additional data file.

The target in the next data set is T1, Aβ1–42 (Homo sapiens, UniProt P05067).
T1 construct: Aβ 1-42^a
T1 sequence (P05067 672-713): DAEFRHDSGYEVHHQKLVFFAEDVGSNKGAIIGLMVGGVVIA
The data set is described as follows: Endpoint degradation assay with ELISA read-out. The class given is biochemical. The conditions noted are these: 1 hour at room temperature; Aβ42 ELISA. As for the experimental part: as §1

The mark [1] stands for this setting: substrate Endothelin-1 (unlabelled), RP-HPLC, 10 min at 37°C.

B1: NEPv: lead variant at round 2, human NEP ectodomain with the two mutations G399V and G714K (protein, UniProt P08473 52-750, looked up, variant G399V G714K)
extracellular domain: YDDGICKSSDCIKSAARLIQNMDATTEPCTDFFKYACGGWLKRNVIPETSSRYGNFDILRDELEVVLKDVLQEPKTEDIVAVQKAKALYRSCINESAIDSRGGEPLLKLLPDIYGWPVATENWEQKYGASWTAEKAIAQLNSKYGKKVLINLFVGTDDKNSVNHVIHIDQPRLGLPSRDYYECTGIYKEACTAYVDFMISVARLIRQEERLPIDENQLALEMNKVMELEKEIANATAKPEDRNDPMLLYNKMTLAQIQNNFSLEINGKPFSWLNFTNEIMSTVNISITNEEDVVVYAPEYLTKLKPILTKYSARDLQNLMSWRFIMDLVSSLSRTYKESRNAFRKALYVTTSETATWRRCANYVNGNMENAVGRLYVEAAFAGESKHVVEDLIAQIREVFIQTLDDLTWMDAETKKRAEEKALAIKERIGYPDDIVSNDNKLNNEYLELNYKEDEYFENIIQNLKFSQSKQLKKLREKVDKDEWISGAAVVNAFYSSGRNQIVFPAGILQPPFFSAQQSNSLNYGGIGMVIGHEITHGFDDNGRNFNKDGDLVDWWTQQSASNFKEQSQCMVYQYGNFSWDLAGGQHLNGINTLGENIADNGGLGQAYRAYQNYIKKNGEEKLLPGLDLNHKQLFFLNFAQVWCGTYRPEYAVNSIKTDVHSPKNFRIIGTLQNSAEFSEAFHCRKNSYMNPEKKCRVW
modifications: extracellular domain
With B1, in the data set with Endothelin-1 (setting [1]), the Michaelis constant (Km) (usually the concentration of substrate that gives half-maximal velocity) was found to be 57 ± 20 µM; the kcat (commonly the number of substrate molecules converted per active site and unit of time at saturation) turned out to be 0.059 ± 0.008 s⁻¹. The “Fold change in kcat/KM” value in the data set on Endothelin-1 (substrate Endothelin-1, ratio of wild-type NEP kcat/KM to that of the mutant) amounted to 13. Further, the concentration for a half-maximal effect (EC50) – broadly, the concentration that produces a half-maximal response – in the data set on Aβ1–40 stood at 21.3 nM. For the same molecule, the EC50 with Aβ1–42 came out at 19.5 nM.
